The results in this text go back to paper PMC8776733, “In vivo spatiotemporal control of voltage-gated ion channels by using photoactivatable peptidic toxins” (Nature Communications, 2022).

Ends that are not written are not given here. * marks the point of attachment. Nvoc = Nvoc photocleavable protecting (caging) group on the Lys side chain, COc1cc(COC(=O)*)c([N+](=O)[O-])cc1OC

Holding throughout (assay type): cell-based
For one series, the target named is T1, hERG (Homo sapiens, UniProt Q12809).
T1 construct: expressed in transfected cells
Nature of the series: Photocontrol of hERG current, automated patch-clamp. Conditions: 100 nM; 365 nm, 45 mW/cm^2, 250 s. Here is the method:
(§1) HEK293 cells stably expressing the hNaV1.1 (XM_011511604), hNaV1.2 (XM_017004655) or hNaV1.6 (XM_011538651) channels, CHO cells transiently expressing hKV1.2 (NG_027997.2) and CHO cells stably expressing hNaV1.7 (XM_011511618) or the hERG (NM_000238) channels were cultured in Dulbecco’s Modified Eagle’s Medium (DMEM) supplemented with 10% fetal bovine serum, 1 mM pyruvic acid, 4.5 g/L glucose, 4 mM glutamine, 800 µg/mL G418, 10 U/mL penicillin and 10 μg/mL streptomycin (Gibco, Grand Island, NY). All cell lines were incubated at 37 °C in a 5% CO2 atmosphere. For electrophysiological recordings, cells were detached with trypsin and floating single cells were diluted (~300,000 cells/mL) in medium contained (in mM): […], 4 KCl, 2 CaCl2, 1 MgCl2, 5 glucose, and 10 HEPES (pH 7.4, osmolarity 298 mOsm).
(§2) Automated patch-clamp recordings were performed using the SyncroPatch 384PE from Nanion (München, Germany). […] Current inhibition percentages were measured at equilibrium after 14 min peptide application time. […]
(§3) The pharmacology of HwTxIV-Nvoc, as well as the efficiency of the released product to block hNaV channels was studied using combined automated patch-clamp and UV illumination. After 2 min of control, HwTxIV-Nvoc was added to the external buffer and effects were recorded for 100 s prior to a 250 s-duration illumination for photocleavage induction of the caged compound. […]
In general terms: hERG is a cardiac potassium channel; its block is linked to QT prolongation.

Another series concerns the target T2, hNaV1.6 (Homo sapiens, UniProt Q9UQD0).
T2 construct: expressed in transfected cells
Nature of the series: Photoactivation by UV illumination combined with automated patch-clamp. The note with it: 100 nM, illumination 4 min, 365 nm, 45 mW/cm2; n = 14. Here is the method:
as §1, §2, §3
A general note: The patch-clamp technique gives a direct electrical read-out from membranes.

In the next series the target is T3, hKV1.2 (Homo sapiens, UniProt P16389).
T3 construct: expressed in transfected cells; host or cells: CHO (transient)
Nature of the series: Photocontrol of KV1.2 current, automated patch-clamp. The note with it: 100 nM; 365 nm, 45 mW/cm^2, 250 s. Here is the method:
as §1, §2, §3

T2 sequence (Q9UQD0 whole entry): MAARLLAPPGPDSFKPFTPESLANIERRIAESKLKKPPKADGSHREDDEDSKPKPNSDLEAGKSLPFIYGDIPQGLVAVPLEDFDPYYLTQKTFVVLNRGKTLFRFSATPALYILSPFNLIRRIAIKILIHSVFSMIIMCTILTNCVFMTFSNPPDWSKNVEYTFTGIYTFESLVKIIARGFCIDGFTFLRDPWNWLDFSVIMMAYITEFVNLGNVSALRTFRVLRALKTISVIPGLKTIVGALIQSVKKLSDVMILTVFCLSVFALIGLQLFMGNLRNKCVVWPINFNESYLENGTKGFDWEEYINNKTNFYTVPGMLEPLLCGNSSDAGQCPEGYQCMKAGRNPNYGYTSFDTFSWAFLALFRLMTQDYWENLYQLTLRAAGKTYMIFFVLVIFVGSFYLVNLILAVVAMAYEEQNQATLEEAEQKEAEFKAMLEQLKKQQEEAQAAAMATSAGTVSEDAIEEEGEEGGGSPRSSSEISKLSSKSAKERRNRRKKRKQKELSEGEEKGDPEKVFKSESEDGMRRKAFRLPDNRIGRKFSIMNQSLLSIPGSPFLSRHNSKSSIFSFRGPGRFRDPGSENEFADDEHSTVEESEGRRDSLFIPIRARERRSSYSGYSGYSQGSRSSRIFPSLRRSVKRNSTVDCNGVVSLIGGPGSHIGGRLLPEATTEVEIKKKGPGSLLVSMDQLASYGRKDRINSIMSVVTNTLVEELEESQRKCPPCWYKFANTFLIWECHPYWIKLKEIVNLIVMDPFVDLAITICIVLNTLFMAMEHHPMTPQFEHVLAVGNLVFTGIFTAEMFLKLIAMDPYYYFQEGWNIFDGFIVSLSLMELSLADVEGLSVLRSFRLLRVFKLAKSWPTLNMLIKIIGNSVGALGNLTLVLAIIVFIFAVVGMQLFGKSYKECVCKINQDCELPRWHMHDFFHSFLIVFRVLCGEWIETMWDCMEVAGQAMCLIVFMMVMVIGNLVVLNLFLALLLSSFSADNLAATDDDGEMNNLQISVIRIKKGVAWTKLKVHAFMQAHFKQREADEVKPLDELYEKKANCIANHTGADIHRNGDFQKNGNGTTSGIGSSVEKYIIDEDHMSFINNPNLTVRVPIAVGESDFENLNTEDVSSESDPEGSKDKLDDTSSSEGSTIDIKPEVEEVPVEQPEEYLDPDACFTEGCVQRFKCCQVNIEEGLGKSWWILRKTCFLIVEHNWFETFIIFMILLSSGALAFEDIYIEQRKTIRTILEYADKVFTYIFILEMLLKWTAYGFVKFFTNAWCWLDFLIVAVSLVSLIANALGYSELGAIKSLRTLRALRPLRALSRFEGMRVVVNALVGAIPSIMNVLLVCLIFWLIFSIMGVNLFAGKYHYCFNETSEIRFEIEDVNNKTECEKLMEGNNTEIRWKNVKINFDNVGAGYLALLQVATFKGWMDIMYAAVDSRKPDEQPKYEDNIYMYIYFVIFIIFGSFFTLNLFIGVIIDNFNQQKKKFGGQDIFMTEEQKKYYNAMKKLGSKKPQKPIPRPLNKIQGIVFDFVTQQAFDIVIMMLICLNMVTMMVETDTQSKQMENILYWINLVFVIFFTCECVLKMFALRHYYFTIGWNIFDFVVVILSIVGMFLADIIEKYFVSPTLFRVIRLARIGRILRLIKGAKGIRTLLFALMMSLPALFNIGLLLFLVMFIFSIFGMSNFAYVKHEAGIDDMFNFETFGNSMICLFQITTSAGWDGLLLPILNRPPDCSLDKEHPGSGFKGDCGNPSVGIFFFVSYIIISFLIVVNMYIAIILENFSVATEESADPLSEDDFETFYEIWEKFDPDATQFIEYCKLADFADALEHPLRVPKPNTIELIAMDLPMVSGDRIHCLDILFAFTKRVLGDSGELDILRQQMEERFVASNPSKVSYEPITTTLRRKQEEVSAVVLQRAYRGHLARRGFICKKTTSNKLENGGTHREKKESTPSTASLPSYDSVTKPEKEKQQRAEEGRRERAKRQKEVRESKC
T3 sequence (P16389 whole entry): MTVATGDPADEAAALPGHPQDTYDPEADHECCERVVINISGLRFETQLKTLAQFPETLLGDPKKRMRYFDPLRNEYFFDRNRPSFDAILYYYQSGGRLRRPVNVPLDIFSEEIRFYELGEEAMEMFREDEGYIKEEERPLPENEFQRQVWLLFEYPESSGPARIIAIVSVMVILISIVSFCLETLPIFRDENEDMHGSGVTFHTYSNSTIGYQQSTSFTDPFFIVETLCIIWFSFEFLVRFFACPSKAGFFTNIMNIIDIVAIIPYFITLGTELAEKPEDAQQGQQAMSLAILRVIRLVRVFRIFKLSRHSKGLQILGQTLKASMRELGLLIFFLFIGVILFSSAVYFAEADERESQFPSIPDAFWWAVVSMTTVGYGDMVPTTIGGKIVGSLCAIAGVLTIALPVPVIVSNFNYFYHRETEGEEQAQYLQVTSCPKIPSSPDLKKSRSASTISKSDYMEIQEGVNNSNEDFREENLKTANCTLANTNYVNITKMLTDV
T1 sequence (Q12809 whole entry): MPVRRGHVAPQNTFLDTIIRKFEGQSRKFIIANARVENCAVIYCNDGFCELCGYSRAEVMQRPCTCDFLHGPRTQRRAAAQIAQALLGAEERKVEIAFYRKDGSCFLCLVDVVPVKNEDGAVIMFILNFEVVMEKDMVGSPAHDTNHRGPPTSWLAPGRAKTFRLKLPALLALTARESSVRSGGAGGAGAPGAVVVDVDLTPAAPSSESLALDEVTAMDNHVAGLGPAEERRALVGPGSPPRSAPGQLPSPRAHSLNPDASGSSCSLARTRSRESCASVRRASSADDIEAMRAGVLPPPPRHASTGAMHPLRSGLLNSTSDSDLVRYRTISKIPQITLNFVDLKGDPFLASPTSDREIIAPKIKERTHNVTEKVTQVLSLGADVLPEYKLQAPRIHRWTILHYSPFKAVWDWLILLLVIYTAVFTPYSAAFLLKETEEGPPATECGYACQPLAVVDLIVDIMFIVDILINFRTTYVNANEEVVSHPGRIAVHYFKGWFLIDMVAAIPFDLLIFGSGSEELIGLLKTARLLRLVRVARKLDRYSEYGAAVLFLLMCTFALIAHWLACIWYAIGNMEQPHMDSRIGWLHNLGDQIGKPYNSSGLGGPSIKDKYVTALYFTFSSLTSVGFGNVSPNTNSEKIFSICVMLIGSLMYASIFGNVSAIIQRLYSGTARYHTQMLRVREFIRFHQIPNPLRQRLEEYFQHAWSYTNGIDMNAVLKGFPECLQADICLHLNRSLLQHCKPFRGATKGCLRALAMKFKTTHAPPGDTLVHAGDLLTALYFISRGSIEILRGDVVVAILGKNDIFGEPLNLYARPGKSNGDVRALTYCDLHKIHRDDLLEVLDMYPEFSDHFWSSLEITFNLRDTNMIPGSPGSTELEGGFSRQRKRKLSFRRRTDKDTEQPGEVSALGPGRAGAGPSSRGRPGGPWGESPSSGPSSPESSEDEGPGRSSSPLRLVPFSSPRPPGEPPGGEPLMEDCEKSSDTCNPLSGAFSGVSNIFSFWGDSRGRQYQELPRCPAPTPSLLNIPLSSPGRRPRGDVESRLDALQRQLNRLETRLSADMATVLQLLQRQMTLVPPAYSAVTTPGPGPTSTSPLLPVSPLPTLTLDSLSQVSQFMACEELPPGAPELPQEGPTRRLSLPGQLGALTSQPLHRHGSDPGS

“BeKm1-Nvoc: BeKm1 (hERG blocker) caged with a Nvoc protecting group on K^18 (RPTDIKCSESYQCFPVCK(Nvoc)SRFGKTNGRCVNGFCDCF; ends and bridges not checked; UniProt Q9BKB7 22-57, looked up)”: the “UV-dependent effect on hERG current” value in the series with hERG is “block”. Moreover, the “effect of Nvoc photolysis by-product on hNaV1.6” value with hNaV1.6 is “inert”.
For the substance charybdotoxin-Nvoc, the “UV-dependent effect on KV1.2 current” value with hKV1.2 was “block”.
